Assay results taken from the supplement of paper PMC9170038.

Tested on: MS2 coat protein
Experiment: apparent KD of MS2 coat protein; designed switch direction (-1 OFF switch, 1 ON switch): -1; higher = weaker reporter binding
Procedure, shortened: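 Designed RNA switches sharing common flanks were transcribed on Illumina chips by stalled E. coli RNA polymerase. They were titrated with SNAP-549-labelled MS2 coat protein, from 0.7 or 1.5 nM doubling to 3 µM, in Tris-HCl pH 7.5 buffer with KCl, MgCl2, BSA, DTT, tRNA and Tween-20. Titrations ran without input, with 200 uM small-molecule ligand, or with an oligonucleotide input. The apparent KD of each design is the median over its clusters, after curve-fitting of normalised cluster fluorescence.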

[1] = Eterna round: R95, input ligand: FMN 200 uM
[2] = Eterna round: R95, input ligand: microRNA oligo, concentration not stated
[3] = Eterna round: R95, input ligand: none
[4] = input ligand: microRNA oligo, concentration not stated

Sequence	apparent KD of MS2 coat protein (input ligand: FMN 200 uM)	apparent KD of MS2 coat protein (input ligand: none)	apparent KD of MS2 coat protein [1]	apparent KD of MS2 coat protein [2]	apparent KD of MS2 coat protein [3]	apparent KD of MS2 coat protein [4]
AUUAUGUUAGGAUAUGCUUAUGGUGGAUAAUCGGAUAUGAUGCAGAAGGGACAUGAGGAUCACCCAUGUACUGU [EX4 #23] (Eterna round: R97, puzzle: Exclusion 4)	0.0215 µM	0.0221 µM	–	–	–	–
UUAAUGGCUGUGAGGAUAUCGGAUAGAUAGAUAUUCGAGAAGGCACAUGAGGAUCACCCAUGUGUGAUUAGAGA [Brourd's EX4 #63] (Eterna round: R97, puzzle: Brourd's mod of Exclusion 4)	0.13 µM	0.026 µM	–	–	–	–
AGUACUAACACGAAAGUGUUAGUACAAUAAGCUUGUAUUACAUGAGGAUCACCCAUGUCCUCAUAAGCUCGUCUUAU [Mat - Sensor v3 - Turn-off var 2 - D46] (puzzle: Sensor v3, turn-off variant 2)	–	–	0.316 µM	0.014 µM	0.881 µM	–
UUAAAUCAUGUAGGAUAUGCAUAGCGAAGCUAUGCAGAAGGACAUGAGGAUCACCCAUGUGCUUGCGUCCGCGUACGGAUGCUA [Mat - Exclusion NG 1 - Mod of JL - D67] (Eterna round: R96, puzzle: Exclusion NG 1)	0.423 µM	0.123 µM	–	–	–	0.0844 µM
CGUAUGUGAGGAUAUGACAAUGGUAUCUUCGGAUACCAUUGUCAGAAGGUACAUGAGGAUCACCCAUGUAGAUC [Exclusion 4 - Mod Brourd Ex 4-3: 20 v.3] (puzzle: Exclusion 4)	–	–	–	0.024 µM	–	–
UAUUAGCAAGUGAGAUCCGACAUGAGGAUCACCCAUGUGCUCGUCUUAUAAGGUAAUAUAAGAAAACUUAUAUUACC [Elimod 6 - Jieux - Sensor, turn-off variant 1] (Eterna round: R97, puzzle: Sensor, turn-off variant 1)	0.207 µM	0.233 µM	–	–	–	–
GUGAGACAUGAGGAUCACCCAUGUCAGGAUAUGAUACUAUGUACUUCGGUACAUAGUAUCAGAAGGGACAGUGA [Ex1-3: 5] (puzzle: Exclusion 1)	–	–	–	0.0425 µM	–	–
UGAUCUAGGCGAGGAUAUACAUGAGGAUCACCCAUGUAAGCGUGACAUGGAAACAUGUCACGUAUGUAGAAGGCGCCUAGAUCU [MOD ENG2 3.54 by JL] (Eterna round: R96, puzzle: Exclusion NG 2)	–	0.0133 µM	–	–	–	0.0086 µM
GCCAGAGCAGGAUAUCUAAUAUGUCACAUGAGGAUCACCCAUGUCCAGCGAAAGCUGGAGGGAGAAGGGCUCUGGC [Fiskers Ex 5 - 21] (puzzle: Exclusion 5)	–	–	–	0.0518 µM	–	–
AGGGAAGAGUGAGGAUAUGGAAAUUUGGUGAGAACAUGAGGAUCACCCAUGUGGAAACAAGAAAAUUAGAAGGUAUAGGGAGGG [AK ExNG2-1.2] (Eterna round: R96, puzzle: Exclusion NG 2)	0.048 µM	0.0613 µM	–	–	–	0.0453 µM
CGGUGCUCGUGGAAACAUGAGGAUCACCCAUGUAGAGUUAGCGAGGAUAUCGGUAACACACAUCACGAGAAGGCGCGAACCUGU [Ex NG3 #6] (Eterna round: R96, puzzle: Exclusion NG 3)	0.0317 µM	0.0208 µM	–	–	–	0.0121 µM
AGUAACAGAGGAUAUACUAUUUUAUGUGUUUGUUAUUUUGAACAUGAGGAUCACCCAUGUAGAAGGCUGAAUAA [JMF 93] (puzzle: Exclusion 2)	–	–	–	0.024 µM	–	–
UUAGAUUGAGGAUAUUUGGAUCCGUACAUGAGGAUCACCCAUGUGUGUAGCACAUUCAACGGAGAAGGCGGUUUCU [Eternabot (L1) Solution 73] (Eterna round: R97, puzzle: Exclusion 5)	0.143 µM	0.256 µM	–	–	–	–
CAUGAGGUAGGAUAUACGAUAAUAUAGGGUAGAUAUAUAACACAUGAGGAUCACCCAUGUAGAAGGACCAGUAC [Mat - Exclusion 2 - Mod of my Tesla design - D68] (puzzle: Exclusion 2)	–	–	0.0957 µM	0.0359 µM	0.0344 µM	–
UAUUGUUUUUUUUUAAAUUACAUGAGGAUCACCCAUGUUUUUUUUUUUUUGGUGAUUAUUUUUUGUCUUUUUUUUUU [Jieuxbot 037 - Jieux - Sensor v2, turn-off variant] (Eterna round: R96, puzzle: Sensor v2, turn-off variant)	0.0585 µM	0.0433 µM	–	–	–	0.069 µM
GAUUUUCAUGUAGGAUAUUCCACACAACAACUGGGAGAAGGACAUGAGGAUCACCCAUGUCCUACAACAACUUCAACAAACACA [Weak Sauce] (Eterna round: R96, puzzle: Exclusion NG 1)	0.0158 µM	0.0114 µM	–	–	–	0.00975 µM
GCUGGAAGAGGAUAUACAUAAGGUGCGUCAGCACCGGGCCUACAUGAGGAUCACCCAUGUAGAAGGCUUCCAGC [EX2 #78] (Eterna round: R97, puzzle: Exclusion 2)	0.0551 µM	0.0152 µM	–	–	–	–
CAGUACUGAGGAUAUACAUGAGGAUCACCCAUGUGUGUGAGAAUUGUAUGAAUGUUAUGUAGAAGGCGGUGCUG [JR_Ex3_Sub033] (Eterna round: R97, puzzle: Exclusion 3)	0.143 µM	0.765 µM	–	–	–	–
AGGCGCUCUGUUAGGAUAUUUGCUGACUACUAGGCGGAGAAGGAACAUGAGGAUCACCCAUGUAUACGAUCCGC [BmEX4 C.16] (Eterna round: R97, puzzle: Brourd's mod of Exclusion 4)	0.0137 µM	0.0121 µM	–	–	–	–
AAGAGGUCAGGAUAUACAGGAAGAGAGAGAAGUAGAGGGUAACAUGAGGAUCACCCAUGUAGAAGGGACUAAGA [JR_Exclu2_Sub071] (puzzle: Exclusion 2)	–	–	0.0679 µM	0.0485 µM	0.0631 µM	–
AAGUUACAUGAGGAUCACCCAUGUGAGGAUAUGAGUCAGUCACGGUGACGUGGCUGACUCAGAAGGCACAAAGG [JL-ex1-4.37 salish99 mod] (Eterna round: R97, puzzle: Exclusion 1)	0.256 µM	0.0981 µM	–	–	–	–
CUGAUGUUAGGAUAUCAGGCGCCCGCCACUGGCAAGGCGCAUGAGAAGGGACAUGAGGAUCACCCAUGUAGUAA [Maquraan] (puzzle: Exclusion 4)	–	–	–	0.0215 µM	–	–
ACAUUACAUGAGGAUCACCCAUGUGAGGAUAUGGUGCGGUAGUGUCCUGUCGCGUACACCAGAAGGCGCGGGUG [1st #47] (Eterna round: R97, puzzle: Exclusion 1)	0.122 µM	0.258 µM	–	–	–	–
AAACGGCGGAUCGUGGCUUUUUGCUCGUCUUGUGCUUCGACAUGAGGAUCACCCAUGUGGUGGUGAUCCGUUGUAAA [Grok-var2-16 mod JAL] (puzzle: Sensor v3, turn-off variant 2)	–	–	0.0586 µM	0.0158 µM	0.0835 µM	–
UUUUAACAUGAGGAUCACCCAUGUGAGGAUAUCGUUUUUUUUAUUAAUAUUAAUAAAACGAGAAGGCACAUUUU [JMF 18] (puzzle: Exclusion 1)	–	–	–	0.14 µM	–	–
CAGUACUGAGGAUAUACAUGAGGAUCACCCAUGUGUACCAGCUAGGAUACUAGCAAAAGUAGAAGGCAGUACUG [Mat - Exclusion 3 - Eli Mod - D21] (Eterna round: R97, puzzle: Exclusion 3)	0.0312 µM	0.0195 µM	–	–	–	–
